Columns and labels:
[1] = biological target: T1, recombinant CD3 proteins (UniProt P07766 23-126); assay: Octet BLI, recombinant CD3; Full R^2 0.8253
T1 construct: elsewhere it uses human CD3 E/D and E/G heterodimers

[2] = biological target: T1, recombinant CD3 proteins; assay: Octet BLI, recombinant CD3; Full R^2 0.9881
[3] = biological target: T1, recombinant CD3 proteins; assay: Octet BLI, recombinant CD3; Full R^2 0.9778
[4] = biological target: T1, recombinant CD3 proteins; assay: Octet BLI, recombinant CD3; Full R^2 0.9905
[5] = biological target: T1, recombinant CD3 proteins; assay: Octet BLI, recombinant CD3; Full R^2 0.987

T1 sequence (P07766 23-126): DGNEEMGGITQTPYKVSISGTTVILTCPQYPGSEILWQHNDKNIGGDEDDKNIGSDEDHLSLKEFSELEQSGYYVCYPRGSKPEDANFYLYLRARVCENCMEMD

B1: CD3 × CD33-BspAb70 (bispecific antibody)
chain 1: EVQLVESGGGLVKPGGSLRLSCAASGFTFSSYSMKWVRQAPGKCLEWVSSISSSSSYIYYADSVKGRFTISRDNAKNSLYLQMNSLRAEDTAVYYCARDRGELTLWYWGQGTLVTVSSGGGGSGGGGSGGGGSGGGGSSYELTQPPSVSVSPGQTARITCSGDALPKKYAYWYQQKSGQAPVLVIYEDSKRPSGIPERFSGSSSGTMATLTISGAQVEDEADYYCYSTDSSGNHWVFGCGTKLTVLDKTHTCPPCPAPEFEGGPSVFLFPPKPKDTLMISRTPEVTCVVVDVSHEDPEVKFNWYVDGVEVHNAKTKPREEQYNSTYRVVSVLTVLHQDWLNGKEYKCKVSNKALPASIEKTISKAKGQPREPQVYTLPPCREEMTKNQVSLWCLVKGFYPSDIAVEWESNGQPENNYKTTPPVLDSDGSFFLYSKLTVDKSRWQQGNVFSCSVMHEALHNHYTQKSLSLSPGK
chain 2: EVQLVQSGAEVKKPGSSVKVSCKASGYTITDSNIHWVRQAPGQSLEWIGYIYPYNGGTDYNQKFKNRATLTVDNPTNTAYMELSSLRSEDTAFYYCVNGNPWLAYWGQGTLVTVSSASTKGPSVFPLAPSSKSTSGGTAALGCLVKDYFPEPVTVSWNSGALTSGVHTFPAVLQSSGLYSLSSVVTVPSSSLGTQTYICNVNHKPSNTKVDKRVEPKSCDKTHTCPPCPAPEFEGGPSVFLFPPKPKDTLMISRTPEVTCVVVDVSHEDPEVKFNWYVDGVEVHNAKTKPREEQYNSTYRVVSVLTVLHQDWLNGKEYKCKVSNKALPASIEKTISKAKGQPREPQVCTLPPSREEMTKNQVSLSCAVKGFYPSDIAVEWESNGQPENNYKTTPPVLDSDGSFFLVSKLTVDKSRWQQGNVFSCSVMHEALHNRFTQKSLSLSPGK
chain 3: DIQLTQSPSTLSASVGDRVTITCRASESLDNYGIRFLTWFQQKPGKAPKLLMYAASNQGSGVPSRFSGSGSGTEFTLTISSLQPDDFATYYCQQTKEVPWSFGQGTKVEVKRTVAAPSVFIFPPSDEQLKSGTASVVCLLNNFYPREAKVQWKVDNALQSGNSQESVTEQDSKDSTYSLSSTLTLSKADYEKHKVYACEVTHQGLSSPVTKSFNRGEC
**Q.** How did the Kd [1] turn out when B1 was run?
**A.** 9.11 nM

**Q.** And the koff [1]?
**A.** 0.00554 s⁻¹

**Q.** What about the kon [1] of the same binder?
**A.** 609000 M⁻¹ s⁻¹

B2: CD3 × CD33-BspAb81 (bispecific antibody)
chain 1: QVQLQESGPGLVKPSQTLSLTCTVSGGSISSGGYYWSWIRQHPGKCLEWIGYIYYSGSTYYNPSLKSRVTISVDTSKDQFSLKLSSVTAADTAVYYCARERKTSLPFDIWGQGTMVTVSSGGGGSGGGGSGGGGSGGGGSNFMLTQPHSVSESPGKTVTISCTRSSGSIASNYVQWYQQRPGSSPTTVIYEDNQRPSGVPDRFSGSIDSSSNSASLTISGLKTEDEAYYYCQSFDSSNRVFGCGTKLTVLDKTHTCPPCPAPEFEGGPSVFLFPPKPKDTLMISRTPEVTCVVVDVSHEDPEVKFNWYVDGVEVHNAKTKPREEQYNSTYRVVSVLTVLHQDWLNGKEYKCKVSNKALPASIEKTISKAKGQPREPQVYTLPPCREEMTKNQVSLWCLVKGFYPSDIAVEWESNGQPENNYKTTPPVLDSDGSFFLYSKLTVDKSRWQQGNVFSCSVMHEALHNHYTQKSLSLSPGK
chain 2: EVQLVQSGAEVKKPGSSVKVSCKASGYTITDSNIHWVRQAPGQSLEWIGYIYPYNGGTDYNQKFKNRATLTVDNPTNTAYMELSSLRSEDTAFYYCVNGNPWLAYWGQGTLVTVSSASTKGPSVFPLAPSSKSTSGGTAALGCLVKDYFPEPVTVSWNSGALTSGVHTFPAVLQSSGLYSLSSVVTVPSSSLGTQTYICNVNHKPSNTKVDKRVEPKSCDKTHTCPPCPAPEFEGGPSVFLFPPKPKDTLMISRTPEVTCVVVDVSHEDPEVKFNWYVDGVEVHNAKTKPREEQYNSTYRVVSVLTVLHQDWLNGKEYKCKVSNKALPASIEKTISKAKGQPREPQVCTLPPSREEMTKNQVSLSCAVKGFYPSDIAVEWESNGQPENNYKTTPPVLDSDGSFFLVSKLTVDKSRWQQGNVFSCSVMHEALHNRFTQKSLSLSPGK
chain 3: DIQLTQSPSTLSASVGDRVTITCRASESLDNYGIRFLTWFQQKPGKAPKLLMYAASNQGSGVPSRFSGSGSGTEFTLTISSLQPDDFATYYCQQTKEVPWSFGQGTKVEVKRTVAAPSVFIFPPSDEQLKSGTASVVCLLNNFYPREAKVQWKVDNALQSGNSQESVTEQDSKDSTYSLSSTLTLSKADYEKHKVYACEVTHQGLSSPVTKSFNRGEC
**Q.** What does the source list for B2?
**A.** Kd [2]: 69.4 nM; koff [2]: 0.00791 s⁻¹; kon [2]: 114000 M⁻¹ s⁻¹

B3: CD3 × CD33-BspAb83 (bispecific antibody)
chain 1: EVQLVESGGGLVKPGGSLRLSCVASGFTFSRYSMNWVRQAPGKCLEWVSSISSSSRYTYYADSLKGRFIMSRDNAKNSLFLQMNSLRAEDTAVYYCARNLYNALDYWGQGTLVTVSSGGGGSGGGGSGGGGSGGGGSFMLTQPHSVSESPGKTVTISCTRSSGSIASNYVQWYQQRPGSSPTTVIYEDNQRPSGVPDRFSGSIDSSSNSASLTISGLQTEDEADYYCQSYDSSNRVFGCGTKLTVLDKTHTCPPCPAPEFEGGPSVFLFPPKPKDTLMISRTPEVTCVVVDVSHEDPEVKFNWYVDGVEVHNAKTKPREEQYNSTYRVVSVLTVLHQDWLNGKEYKCKVSNKALPASIEKTISKAKGQPREPQVYTLPPCREEMTKNQVSLWCLVKGFYPSDIAVEWESNGQPENNYKTTPPVLDSDGSFFLYSKLTVDKSRWQQGNVFSCSVMHEALHNHYTQKSLSLSPGK
chain 2: EVQLVQSGAEVKKPGSSVKVSCKASGYTITDSNIHWVRQAPGQSLEWIGYIYPYNGGTDYNQKFKNRATLTVDNPTNTAYMELSSLRSEDTAFYYCVNGNPWLAYWGQGTLVTVSSASTKGPSVFPLAPSSKSTSGGTAALGCLVKDYFPEPVTVSWNSGALTSGVHTFPAVLQSSGLYSLSSVVTVPSSSLGTQTYICNVNHKPSNTKVDKRVEPKSCDKTHTCPPCPAPEFEGGPSVFLFPPKPKDTLMISRTPEVTCVVVDVSHEDPEVKFNWYVDGVEVHNAKTKPREEQYNSTYRVVSVLTVLHQDWLNGKEYKCKVSNKALPASIEKTISKAKGQPREPQVCTLPPSREEMTKNQVSLSCAVKGFYPSDIAVEWESNGQPENNYKTTPPVLDSDGSFFLVSKLTVDKSRWQQGNVFSCSVMHEALHNRFTQKSLSLSPGK
chain 3: DIQLTQSPSTLSASVGDRVTITCRASESLDNYGIRFLTWFQQKPGKAPKLLMYAASNQGSGVPSRFSGSGSGTEFTLTISSLQPDDFATYYCQQTKEVPWSFGQGTKVEVKRTVAAPSVFIFPPSDEQLKSGTASVVCLLNNFYPREAKVQWKVDNALQSGNSQESVTEQDSKDSTYSLSSTLTLSKADYEKHKVYACEVTHQGLSSPVTKSFNRGEC
**Q.** What does the source list for B3?
**A.** Kd [3]: 3.28 nM; koff [3]: 0.00134 s⁻¹; kon [3]: 408000 M⁻¹ s⁻¹

B4: CD3 × CD33-BspAb80 (bispecific antibody)
chain 1: QVQLQESGPGLVKPSETLSLTCTVSGGSISSYYWSWIRQPAGKCLEWIGRIYTSGSTKYNPSLKSRVTMSVDTSKNQFSLKLISVTAADTAVYFCARERIRDLYFDYWGQGTLVTVSSGGGGSGGGGSGGGGSGGGGSNFMLTQPHSVSESPGKTVTISCTRTSGSIASNYVQWYQQRPGSSPTTVIYEDNQRPSGVPDRFSGSIDSSSNSASLTISGLKTEDEAAYYCQSYDRSNRVFGCGTKLTVLDKTHTCPPCPAPEFEGGPSVFLFPPKPKDTLMISRTPEVTCVVVDVSHEDPEVKFNWYVDGVEVHNAKTKPREEQYNSTYRVVSVLTVLHQDWLNGKEYKCKVSNKALPASIEKTISKAKGQPREPQVYTLPPCREEMTKNQVSLWCLVKGFYPSDIAVEWESNGQPENNYKTTPPVLDSDGSFFLYSKLTVDKSRWQQGNVFSCSVMHEALHNHYTQKSLSLSPGK
chain 2: EVQLVQSGAEVKKPGSSVKVSCKASGYTITDSNIHWVRQAPGQSLEWIGYIYPYNGGTDYNQKFKNRATLTVDNPTNTAYMELSSLRSEDTAFYYCVNGNPWLAYWGQGTLVTVSSASTKGPSVFPLAPSSKSTSGGTAALGCLVKDYFPEPVTVSWNSGALTSGVHTFPAVLQSSGLYSLSSVVTVPSSSLGTQTYICNVNHKPSNTKVDKRVEPKSCDKTHTCPPCPAPEFEGGPSVFLFPPKPKDTLMISRTPEVTCVVVDVSHEDPEVKFNWYVDGVEVHNAKTKPREEQYNSTYRVVSVLTVLHQDWLNGKEYKCKVSNKALPASIEKTISKAKGQPREPQVCTLPPSREEMTKNQVSLSCAVKGFYPSDIAVEWESNGQPENNYKTTPPVLDSDGSFFLVSKLTVDKSRWQQGNVFSCSVMHEALHNRFTQKSLSLSPGK
chain 3: DIQLTQSPSTLSASVGDRVTITCRASESLDNYGIRFLTWFQQKPGKAPKLLMYAASNQGSGVPSRFSGSGSGTEFTLTISSLQPDDFATYYCQQTKEVPWSFGQGTKVEVKRTVAAPSVFIFPPSDEQLKSGTASVVCLLNNFYPREAKVQWKVDNALQSGNSQESVTEQDSKDSTYSLSSTLTLSKADYEKHKVYACEVTHQGLSSPVTKSFNRGEC
**Q.** How did the Kd [4] turn out when B4 was run?
**A.** 6.06 nM

**Q.** And the koff [4]?
**A.** 0.00186 s⁻¹

**Q.** What about the kon [4] of the same binder?
**A.** 308000 M⁻¹ s⁻¹

B5: CD3 × CD33-BspAb82 (bispecific antibody)
chain 1: EVQLVESGGGLVKPGGSLRLSCAASGLTFSTYSMNWVRQAPGKCLEWVSSISSSGSYVYYADSVKGRFTMSRDNAKNSLYLQMNSLRAEDTAVYYCARERRELLFDYWGQGTLVTVSSGGGGSGGGGSGGGGSGGGGSNFMLTQPHSVSESPGKTVTISCTRSSGSIASNYVQWYQQRPGSSPTSVIYEDNQRPSGVPDRFSGSIDSSSNSASLTISGLKTEDEADYYCQSYDRSNRVFGCGTKLTVLDKTHTCPPCPAPEFEGGPSVFLFPPKPKDTLMISRTPEVTCVVVDVSHEDPEVKFNWYVDGVEVHNAKTKPREEQYNSTYRVVSVLTVLHQDWLNGKEYKCKVSNKALPASIEKTISKAKGQPREPQVYTLPPCREEMTKNQVSLWCLVKGFYPSDIAVEWESNGQPENNYKTTPPVLDSDGSFFLYSKLTVDKSRWQQGNVFSCSVMHEALHNHYTQKSLSLSPGK
chain 2: EVQLVQSGAEVKKPGSSVKVSCKASGYTITDSNIHWVRQAPGQSLEWIGYIYPYNGGTDYNQKFKNRATLTVDNPTNTAYMELSSLRSEDTAFYYCVNGNPWLAYWGQGTLVTVSSASTKGPSVFPLAPSSKSTSGGTAALGCLVKDYFPEPVTVSWNSGALTSGVHTFPAVLQSSGLYSLSSVVTVPSSSLGTQTYICNVNHKPSNTKVDKRVEPKSCDKTHTCPPCPAPEFEGGPSVFLFPPKPKDTLMISRTPEVTCVVVDVSHEDPEVKFNWYVDGVEVHNAKTKPREEQYNSTYRVVSVLTVLHQDWLNGKEYKCKVSNKALPASIEKTISKAKGQPREPQVCTLPPSREEMTKNQVSLSCAVKGFYPSDIAVEWESNGQPENNYKTTPPVLDSDGSFFLVSKLTVDKSRWQQGNVFSCSVMHEALHNRFTQKSLSLSPGK
chain 3: DIQLTQSPSTLSASVGDRVTITCRASESLDNYGIRFLTWFQQKPGKAPKLLMYAASNQGSGVPSRFSGSGSGTEFTLTISSLQPDDFATYYCQQTKEVPWSFGQGTKVEVKRTVAAPSVFIFPPSDEQLKSGTASVVCLLNNFYPREAKVQWKVDNALQSGNSQESVTEQDSKDSTYSLSSTLTLSKADYEKHKVYACEVTHQGLSSPVTKSFNRGEC
**Q.** For B5, which Kd [5] is on record?
**A.** 18.7 nM

**Q.** What about the koff [5] of the same binder?
**A.** 0.00536 s⁻¹

**Q.** What about the kon [5] of the same binder?
**A.** 287000 M⁻¹ s⁻¹
